Reference: paper PMC2744565, “Human Telomerase Reverse Transcriptase (hTERT) Q169 Is Essential for Telomerase Function In Vitro and In Vivo”

B1: bio-Tetrahymena (ssDNA)
DNA: TTGGGGTTGGGGTTGGGG
B2: bio-TELO12 (ssDNA)
DNA: TTAGGGTTAGGG
B3: bio-TELO24 (ssDNA)
DNA: TTAGGGTTAGGGTTAGGGTTAGGG
B4: bio-TELO6 (ssDNA)
DNA: TTAGGG

Legend:
Details in all cases: protein: ivt; tags: N-terminal FLAG; label: 5'-biotin
hTERT Q169N [1] = biological target: T1, hTERT Q169N (Homo sapiens, UniProt O14746 1-1132, Q169N); experiment: pull-down; 5'-biotin primers with RRL-made 35S-hTERT (no hTR), neutravidin bead pull-down; primer mix pre-incubated on ice 45-60 min; buffer, salt and pH not given (ref 28)
T1 sequence (O14746 whole entry Q169N): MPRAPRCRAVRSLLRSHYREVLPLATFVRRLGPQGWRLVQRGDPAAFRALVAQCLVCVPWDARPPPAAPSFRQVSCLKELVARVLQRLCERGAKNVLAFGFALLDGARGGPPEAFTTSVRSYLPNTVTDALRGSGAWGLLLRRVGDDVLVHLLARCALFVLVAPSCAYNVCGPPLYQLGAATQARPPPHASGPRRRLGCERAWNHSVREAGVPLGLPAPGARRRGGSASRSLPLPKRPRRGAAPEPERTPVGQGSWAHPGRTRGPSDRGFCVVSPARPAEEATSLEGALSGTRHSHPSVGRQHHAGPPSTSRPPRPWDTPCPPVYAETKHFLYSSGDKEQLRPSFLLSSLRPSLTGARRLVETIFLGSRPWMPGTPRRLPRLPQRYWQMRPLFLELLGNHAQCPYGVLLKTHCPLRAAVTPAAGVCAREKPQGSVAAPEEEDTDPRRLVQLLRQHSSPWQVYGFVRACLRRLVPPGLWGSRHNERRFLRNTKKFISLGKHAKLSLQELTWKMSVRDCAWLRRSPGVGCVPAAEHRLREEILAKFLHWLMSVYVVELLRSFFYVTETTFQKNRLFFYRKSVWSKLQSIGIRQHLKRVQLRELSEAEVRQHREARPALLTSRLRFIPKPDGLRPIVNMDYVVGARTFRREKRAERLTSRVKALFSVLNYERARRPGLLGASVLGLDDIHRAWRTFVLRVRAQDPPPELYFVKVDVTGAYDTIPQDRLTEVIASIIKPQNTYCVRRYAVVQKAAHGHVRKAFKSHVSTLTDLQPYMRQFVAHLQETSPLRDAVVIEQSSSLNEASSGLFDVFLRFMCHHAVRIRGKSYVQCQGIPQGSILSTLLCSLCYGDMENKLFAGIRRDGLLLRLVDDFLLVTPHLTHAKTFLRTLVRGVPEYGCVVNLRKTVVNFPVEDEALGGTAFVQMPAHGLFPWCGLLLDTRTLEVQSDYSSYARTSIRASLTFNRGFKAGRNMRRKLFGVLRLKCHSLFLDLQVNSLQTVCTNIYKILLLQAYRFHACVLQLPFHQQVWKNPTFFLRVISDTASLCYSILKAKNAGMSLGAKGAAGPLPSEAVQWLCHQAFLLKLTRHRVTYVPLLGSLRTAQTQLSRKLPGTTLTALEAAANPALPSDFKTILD

hTERT Q169D [2] = biological target: T2, hTERT Q169D (Homo sapiens, UniProt O14746 1-1132, Q169D); experiment: as above
T2 sequence (O14746 whole entry Q169D): as the sequence (O14746 whole entry Q169N) above, with N169D counted along it

hTERT WT = hTERT WT (Homo sapiens, UniProt O14746 1-1132); experiment: as above
hTERT WT, sequence (O14746 whole entry): as the sequence (O14746 whole entry Q169N) above, with N169Q counted along it

hTERT Q169A [3] = biological target: T3, hTERT Q169A (Homo sapiens, UniProt O14746 1-1132, Q169A); experiment: as above
T3 sequence (O14746 whole entry Q169A): as the sequence (O14746 whole entry Q169N) above, with N169A counted along it

hTERT Q169N [4] = biological target: T1, hTERT Q169N; experiment: pull-down; stronger than WT; 5'-biotin primers with RRL-made 35S-hTERT (no hTR), neutravidin bead pull-down; primer mix pre-incubated on ice 45-60 min; buffer, salt and pH not given (ref 28)
hTERT Q169D [5] = biological target: T2, hTERT Q169D; experiment: as above
hTERT Q169A [6] = biological target: T3, hTERT Q169A; experiment: as above

| Binder | binding result (hTERT Q169N [1]) | binding result (hTERT Q169D [2]) | binding result (hTERT WT) | binding result (hTERT Q169A [3]) | binding result (hTERT Q169N [4]) | binding result (hTERT Q169D [5]) | binding result (hTERT Q169A [6]) |
| --- | --- | --- | --- | --- | --- | --- | --- |
| B1 | binds | binds | binds | binds | – | – | – |
| B2 | – | – | – | – | binds | binds | binds |
| B3 | – | – | – | – | – | – | binds |
| B4 | – | – | – | – | binds | binds | binds |
